Reference: IntAct's records for PubMed 20534488

B1: Ras-related protein Rab-5C (Homo sapiens), P51148 (parent)
chain: MAGRGGAARPNGPAAGNKICQFKLVLLGESAVGKSSLVLRFVKGQFHEYQESTIGAAFLTQTVCLDDTTVKFEIWDTAGQERYHSLAPMYYRGAQAAIVVYDITNTDTFARAKNWVKELQRQASPNIVIALAGNKADLASKRAVEFQEAQAYADDNSLLFMETSAKTAMNVNEIFMAIAKKLPKNEPQNATGAPGRNRGVDLQENNPASRSQCCSN
partner: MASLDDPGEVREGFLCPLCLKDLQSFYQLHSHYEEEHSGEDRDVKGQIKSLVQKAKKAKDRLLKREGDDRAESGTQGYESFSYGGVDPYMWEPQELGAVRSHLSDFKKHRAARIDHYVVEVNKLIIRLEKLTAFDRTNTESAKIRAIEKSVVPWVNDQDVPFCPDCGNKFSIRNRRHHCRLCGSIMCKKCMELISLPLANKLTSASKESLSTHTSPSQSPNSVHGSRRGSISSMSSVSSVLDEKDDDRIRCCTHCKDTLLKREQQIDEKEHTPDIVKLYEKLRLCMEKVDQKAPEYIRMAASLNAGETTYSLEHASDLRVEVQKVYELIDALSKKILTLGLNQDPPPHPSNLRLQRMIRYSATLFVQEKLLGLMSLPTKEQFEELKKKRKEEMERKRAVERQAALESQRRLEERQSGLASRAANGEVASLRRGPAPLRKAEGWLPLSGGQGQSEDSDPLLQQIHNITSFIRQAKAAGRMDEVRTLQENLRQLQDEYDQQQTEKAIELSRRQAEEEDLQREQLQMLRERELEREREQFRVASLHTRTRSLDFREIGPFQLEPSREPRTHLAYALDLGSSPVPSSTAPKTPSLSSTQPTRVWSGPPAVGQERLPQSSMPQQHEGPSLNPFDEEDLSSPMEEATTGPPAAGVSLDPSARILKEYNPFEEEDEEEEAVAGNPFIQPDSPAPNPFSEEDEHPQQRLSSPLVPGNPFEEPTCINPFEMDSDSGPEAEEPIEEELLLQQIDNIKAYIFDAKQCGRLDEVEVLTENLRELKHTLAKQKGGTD
B2: Ras-related protein Rab-5A (Homo sapiens), P20339-1 (parent)
chain: MASRGATRPNGPNTGNKICQFKLVLLGESAVGKSSLVLRFVKGQFHEFQESTIGAAFLTQTVCLDDTTVKFEIWDTAGQERYHSLAPMYYRGAQAAIVVYDITNEESFARAKNWVKELQRQASPNIVIALSGNKADLANKRAVDFQEAQSYADDNSLLFMETSAKTSMNVNEIFMAIAKKLPKNEPQNPGANSARGRGVDLTEPTQPTRNQCCSN
B3: Ras-related protein Rab-5C (Homo sapiens), P51148 (parent)
chain: B1 chain

Variants of: B1
Conditions: with rbns5_human RBSN

Row | Variant | effect of a mutation on the interaction
1 | L59M | with no effect
2 | E73L | with no effect
3 | H84R | decreasing interaction strength
4 | Q61K | with no effect
5 | Q50I | with no effect
6 | A94S | increasing interaction strength
7 | A57S | decreasing interaction strength
8 | A57D | disrupting interaction strength
9 | E51N | decreasing interaction strength
10 | E48P | with no effect
11 | Y83F | with no effect
12 | S52P | decreasing interaction strength
13 | K43E | disrupting interaction strength
14 | Y49N | with no effect

Variants of: B2
Conditions: with eea1_human EEA1, Q15075
Sequence of eea1_human EEA1, Q15075 (Q15075 whole entry): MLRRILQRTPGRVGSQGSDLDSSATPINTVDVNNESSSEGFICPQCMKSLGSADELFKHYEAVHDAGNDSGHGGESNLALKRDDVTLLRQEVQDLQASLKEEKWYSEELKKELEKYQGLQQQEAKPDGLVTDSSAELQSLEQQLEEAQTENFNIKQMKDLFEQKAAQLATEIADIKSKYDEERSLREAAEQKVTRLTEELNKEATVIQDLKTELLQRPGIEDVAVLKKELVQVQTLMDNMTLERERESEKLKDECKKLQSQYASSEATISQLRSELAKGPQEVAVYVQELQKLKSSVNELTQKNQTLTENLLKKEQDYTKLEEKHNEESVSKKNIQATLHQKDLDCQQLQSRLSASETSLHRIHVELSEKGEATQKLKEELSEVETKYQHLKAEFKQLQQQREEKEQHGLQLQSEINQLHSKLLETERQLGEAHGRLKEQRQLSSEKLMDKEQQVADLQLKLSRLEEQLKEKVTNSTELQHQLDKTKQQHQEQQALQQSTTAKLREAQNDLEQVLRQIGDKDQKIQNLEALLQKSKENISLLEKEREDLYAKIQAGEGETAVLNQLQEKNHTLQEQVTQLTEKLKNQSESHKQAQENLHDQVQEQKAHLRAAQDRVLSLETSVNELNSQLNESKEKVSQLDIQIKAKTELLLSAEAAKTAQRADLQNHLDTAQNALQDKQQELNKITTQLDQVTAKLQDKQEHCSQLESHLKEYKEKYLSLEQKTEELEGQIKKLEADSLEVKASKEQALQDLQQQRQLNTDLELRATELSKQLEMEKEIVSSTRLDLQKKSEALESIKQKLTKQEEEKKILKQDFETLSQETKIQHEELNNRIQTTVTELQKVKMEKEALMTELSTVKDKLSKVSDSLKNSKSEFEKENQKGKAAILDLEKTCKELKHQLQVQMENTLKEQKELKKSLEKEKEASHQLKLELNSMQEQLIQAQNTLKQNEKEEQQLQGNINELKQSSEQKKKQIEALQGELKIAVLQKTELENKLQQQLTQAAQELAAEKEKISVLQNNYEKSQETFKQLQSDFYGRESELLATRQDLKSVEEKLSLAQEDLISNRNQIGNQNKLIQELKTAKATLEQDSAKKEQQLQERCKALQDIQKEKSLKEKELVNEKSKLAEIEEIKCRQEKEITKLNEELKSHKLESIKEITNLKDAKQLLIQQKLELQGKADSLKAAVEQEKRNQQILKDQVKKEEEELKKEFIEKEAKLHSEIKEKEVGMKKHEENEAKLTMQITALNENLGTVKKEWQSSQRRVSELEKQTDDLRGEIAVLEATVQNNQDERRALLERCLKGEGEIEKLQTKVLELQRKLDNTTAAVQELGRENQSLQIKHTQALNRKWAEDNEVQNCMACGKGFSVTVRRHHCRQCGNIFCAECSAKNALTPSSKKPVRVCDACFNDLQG

Row | Variant | effect of a mutation on the interaction
15 | Q79L | with no effect

Variants of: B3
Conditions: with eea1_human EEA1, Q15075

Row | Variant | effect of a mutation on the interaction
16 | M89S | disrupting interaction strength
17 | M89A | disrupting interaction strength
18 | G55Q | disrupting interaction strength
19 | A57S | disrupting interaction strength
20 | A57D | decreasing interaction strength
21 | A57E | disrupting interaction strength
